In patent US20130171184A1 (MACK TRUCKS, published 2013):
Where no end group is shown, it is not given here. The star is where a group is joined. Biotin = O=C1N[C@H]2[C@H](CS[C@H]2CCCCC(=O)*)N1

B1: mouse vitronectin (other)
chain: DQESCKGRCTQGFMASKKCQCDELCTYYQSCCADYMEQCKPQVTRGDVFTMPEDDYWSYDYVEEPKNNTNTGVQPENTSPPGDLNPRTDGTLKPTAFLDPEEQPSTPAPKVEQQEEILRPDTTDQGTPEFPEEELCSGKPFDAFTDLKNGSLFAFRGQYCYELDETAVRPGYPKLIQDVWGIEGPIDAAFTRINCQGKTYLFKGSQYWRFEDGVLDPGYPRNISEGFSGIPDNVDAAFALPAHRYSGRERVYFFKGKQYWEYEFQQQPSQEECEGSSLSAVFEHFALLQRDSWENIFELLFWGRSSDGAREPQFISRNWHGVPGKVDAAMAGRIYVTGSLSHSAQAKKQKSKRRSRKRYRSRRGRGHRRSQSSNSRRSSRSIWFSLFSSEESGLGTYNNYDYDMDWLVPATCEPIQSVYFFSGDKYYRVNLRTRRVDSVNPPYPRSIAQYWLGCPTSEK
notes: also called mouse Vn
B2: rabbit vitronectin (other)
chain: DQESCKDRCTEGFNANRKCQCDELCSYYQSCCADYAAECKPQVTRGDVFTMPEDEYGPYDYIEQTKDNASVHAQPESPTVGQEPTLSPDLQTEGGAEPTHEVPLEPEMETLRPEGEDLQAGTTELGTSASPAEEELCSGKPFDAFTDLKNGSLFAFRGQYCYELDETAVRPGYPKLIQDVWGIEGPIDAAFTRINCQGKTYLFKGSQYWRFEDGILDPDYPRNISEGFSGIPDNVDAAFALPAHSYSGRERVYFFKGDKYWEYQFQQQPSQEECEGSSLSAVFEHFAMLHRDSWEDIFKLLFWGRPSGGARQPQFISRDWHGVPGKVDAAMAGRIYISGLTPSPSAKKQKSRRRSRKRYRSRYGRGRSQNSRRLSRSISRLWFSSEEVSLGPYNYEDYETSWLKPATSEPIQSVYFFSGDKYYRVNLRTQRVDTVNPPYPRSIAQYWLGCPAPGGQ
notes: also called rabbit Vn
B3: biotinylated vitronectin peptide AR-36 (Vn residues A360-R395, heparin-binding region) (peptide)
peptide: Biotin-APRPSLAKKQRFRHRNRKGYRSQRGHSRGRNQNSRR
notes: Synthetic peptide immobilised on extravidin coated plates; also called HBD peptide
B4: Neisseria meningitidis Opc of strain H44/76, expressed on meningococci (other)
chain: AQELQTANEFTVHTDLSSISSTRAFLKEKHKAAKHISVRADIPFDANQGIRLEAGFGRSKKNIINLETDENKLGKTKNVKLPTGVPENRIDLYTGYTYTQTLSDSLNFRVGAGLGFESSKDSIKTTKHTLHSSRQSWLAKVHADLLSQLGNGWYINPWSEVKFDLNSRYKLNTGVTNLKKDINQKTNGWGFGLGANIGKKLGESASIEAGPFYKQRTYKESGEFSVTTKSGDVSLTIPKTSIREYGLRVGIKF
notes: also called Opc-expressing Nm; (GB) Opc+Δµ
B5: Neisseria meningitidis Hsf (Msf) of strain H44/76, expressed on meningococci (other)
chain: NNEEQEEDLYLDPVQRTVAVLIVNSDKEGTGEKEKVEENSDWAVYFNEKGVLTAREITLKAGDNLKIKQNGTNFTYSLKKDLTDLTSVGTEKLSFSANGNKVNITSDTKGLNFAKETAGTNGDTTVHLNGIGSTLTDTLLNTGATTNVTNDNVTDDEKKRAASVKDVLNAGWNIKGVKPGTTASDNVDFVRTYDTVEFLSADTKTTTVNVESKDNGKKTEVKIGAKTSVIKEKDGKLVTGKDKGENGSSTDEGEGLVTAKEVIDAVNKAGWRMKTTTANGQTGQADKFETVTSGTNVTFASGKGTTATVSKDDQGNITVMYDVNVGDALNVNQLQNSGWNLDSKAVAGSSGKVISGNVSPSKGKMDETVNINAGNNIEITRNGKNIDIATSMTPQFSSVSLGAGADAPTLSVDGDALNVGSKKDNKPVRITNVAPGVKEGDVTNVAQLKGVAQNLNNRIDNVDGNARAGIAQAIATAGLVQAYLPGKSMMAIGGGTYRGEAGYAIGYSSISDGGNWIIKGTASGNSRGHFGASASVGYQW
notes: Opc-deficient variants or mutants isolate the Msf effect; also called NhhA; NMB0992
B6: control peptide GS-22 (peptide)
peptide: Biotin-GSNENQKTVKAESVPNMSFDQS
B7: biotinylated vitronectin peptide VA-26 (amino acids 43-68) (peptide)
peptide: Biotin-VTRGDVFTMPEDEYTVYDDGEEKNNA
notes: Synthetic peptide of human vitronectin V43-A68

What was measured:
[1] = biological target: B5; assay: ELISA, bacteria on immobilised vitronectin
[2] = biological target: B5; assay: ELISA, bacteria on immobilised heparin-affinity purified vitronectin
[3] = biological target: B5; assay: ELISA, bacteria on peptide immobilised on extravidin coated plates
[4] = biological target: control peptide SY-30 (N-terminal biotin); assay: ELISA with immobilised peptides
[5] = biological target: B6; assay: ELISA with immobilised peptides
[6] = biological target: T1, native human vitronectin preparation (nVn) (human, UniProt P04004 20-478); assay: binding of bacteria to nVn against aVn as reference
T1 construct: Same protein as m4 in the native, closed conformation; also called native Vn

[7] = biological target: human fibronectin (from serum) (human, UniProt P02751 32-2296); assay: bacteria incubated in decomplemented serum, dot blot with specific antibodies
[8] = biological target: B5; assay: ELISA with immobilised peptides
[9] = biological target: B5; assay: ELISA, bacteria on immobilised biotinylated peptide

T1 sequence (P04004 20-478 limits assumed): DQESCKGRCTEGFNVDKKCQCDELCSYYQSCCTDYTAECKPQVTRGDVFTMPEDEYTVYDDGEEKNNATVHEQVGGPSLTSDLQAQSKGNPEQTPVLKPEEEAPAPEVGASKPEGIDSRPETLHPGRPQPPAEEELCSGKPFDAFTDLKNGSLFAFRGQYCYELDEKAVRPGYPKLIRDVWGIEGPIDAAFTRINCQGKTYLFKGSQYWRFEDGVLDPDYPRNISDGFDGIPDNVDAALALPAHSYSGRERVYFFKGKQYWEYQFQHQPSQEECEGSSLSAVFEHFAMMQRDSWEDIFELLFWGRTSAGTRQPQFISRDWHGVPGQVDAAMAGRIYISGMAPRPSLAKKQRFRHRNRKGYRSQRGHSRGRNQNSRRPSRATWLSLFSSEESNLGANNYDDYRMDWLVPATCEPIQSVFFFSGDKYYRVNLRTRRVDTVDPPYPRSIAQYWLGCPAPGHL
Chain of human fibronectin (from serum) (P02751 other isoform, or with tags, fused parts or gaps limits assumed): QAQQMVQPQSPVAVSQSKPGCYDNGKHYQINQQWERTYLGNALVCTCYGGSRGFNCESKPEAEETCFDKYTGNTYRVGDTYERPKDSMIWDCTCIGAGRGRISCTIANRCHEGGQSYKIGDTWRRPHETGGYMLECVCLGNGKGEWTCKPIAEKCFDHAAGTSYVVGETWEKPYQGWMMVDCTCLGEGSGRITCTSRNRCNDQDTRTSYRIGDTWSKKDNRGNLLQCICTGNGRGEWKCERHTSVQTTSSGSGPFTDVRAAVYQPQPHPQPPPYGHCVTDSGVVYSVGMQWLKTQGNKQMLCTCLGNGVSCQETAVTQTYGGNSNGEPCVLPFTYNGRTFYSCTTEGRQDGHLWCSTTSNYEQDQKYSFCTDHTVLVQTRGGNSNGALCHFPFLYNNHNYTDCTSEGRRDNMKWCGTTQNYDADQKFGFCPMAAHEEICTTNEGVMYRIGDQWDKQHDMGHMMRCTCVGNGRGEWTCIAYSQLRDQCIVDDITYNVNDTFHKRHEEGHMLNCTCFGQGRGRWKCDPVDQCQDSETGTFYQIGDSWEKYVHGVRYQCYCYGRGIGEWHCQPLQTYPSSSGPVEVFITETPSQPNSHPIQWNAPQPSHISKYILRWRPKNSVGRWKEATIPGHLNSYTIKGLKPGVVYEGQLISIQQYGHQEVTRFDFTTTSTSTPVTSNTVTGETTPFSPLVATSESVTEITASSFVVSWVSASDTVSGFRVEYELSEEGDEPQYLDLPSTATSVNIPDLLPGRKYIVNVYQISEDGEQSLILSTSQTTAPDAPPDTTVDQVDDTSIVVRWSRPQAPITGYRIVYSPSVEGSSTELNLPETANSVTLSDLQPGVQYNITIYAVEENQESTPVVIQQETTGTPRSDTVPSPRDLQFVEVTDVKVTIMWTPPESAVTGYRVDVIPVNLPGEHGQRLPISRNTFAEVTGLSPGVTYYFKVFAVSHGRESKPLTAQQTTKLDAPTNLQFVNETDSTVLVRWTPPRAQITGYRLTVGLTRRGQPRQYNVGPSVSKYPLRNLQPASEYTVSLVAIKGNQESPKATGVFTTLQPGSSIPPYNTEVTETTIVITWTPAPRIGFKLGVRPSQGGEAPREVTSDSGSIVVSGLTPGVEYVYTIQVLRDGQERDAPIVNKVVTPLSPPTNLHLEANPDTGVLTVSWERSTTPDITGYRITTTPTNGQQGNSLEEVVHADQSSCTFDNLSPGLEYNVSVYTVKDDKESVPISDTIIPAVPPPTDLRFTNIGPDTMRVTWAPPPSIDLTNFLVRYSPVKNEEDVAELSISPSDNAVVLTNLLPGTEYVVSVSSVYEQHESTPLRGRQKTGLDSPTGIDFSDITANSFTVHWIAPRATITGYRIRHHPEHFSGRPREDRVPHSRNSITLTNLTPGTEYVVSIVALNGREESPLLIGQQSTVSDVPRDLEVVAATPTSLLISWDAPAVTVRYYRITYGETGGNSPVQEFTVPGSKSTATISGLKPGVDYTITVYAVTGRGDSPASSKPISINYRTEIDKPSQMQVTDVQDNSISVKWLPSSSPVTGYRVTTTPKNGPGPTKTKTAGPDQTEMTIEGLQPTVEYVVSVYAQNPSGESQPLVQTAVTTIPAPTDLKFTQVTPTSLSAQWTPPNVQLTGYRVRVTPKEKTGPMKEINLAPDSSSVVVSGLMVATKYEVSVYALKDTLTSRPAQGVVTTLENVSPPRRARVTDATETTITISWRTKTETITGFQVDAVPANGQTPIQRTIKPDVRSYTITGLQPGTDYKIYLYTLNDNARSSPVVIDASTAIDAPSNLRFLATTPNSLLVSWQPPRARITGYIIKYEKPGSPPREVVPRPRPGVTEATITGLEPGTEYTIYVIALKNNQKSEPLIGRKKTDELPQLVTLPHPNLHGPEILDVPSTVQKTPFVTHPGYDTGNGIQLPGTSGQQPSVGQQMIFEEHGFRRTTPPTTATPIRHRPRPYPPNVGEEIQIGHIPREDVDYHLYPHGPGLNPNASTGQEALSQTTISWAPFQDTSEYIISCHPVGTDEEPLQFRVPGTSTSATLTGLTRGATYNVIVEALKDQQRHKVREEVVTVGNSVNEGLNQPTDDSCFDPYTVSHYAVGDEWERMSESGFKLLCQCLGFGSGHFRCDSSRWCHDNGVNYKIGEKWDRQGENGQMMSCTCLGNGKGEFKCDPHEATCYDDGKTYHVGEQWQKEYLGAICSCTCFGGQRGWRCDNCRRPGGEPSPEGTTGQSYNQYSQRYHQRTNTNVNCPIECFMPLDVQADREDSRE

## B1
[1]
  binding result: binds

## B2
[2]
  binding result: binds

## B3
[3]
  binding result: binds

## B4
[4]
  binding result: no binding
[5]
  binding result: no binding
[6]
  binding relative to the fully activated preparation of Vn: ~30%

## B5
[6]
  binding relative to the fully activated preparation of Vn: ~30%
[7]
  binding result: no binding (tested: 10% pooled human serum)

## B6
[8]
  binding result: no binding

## B7
[9]
  binding result: binds
